Experimental data taken from patent US20240216513A1, “FATTY ACID-BIFUNCTIONAL DEGRADER CONJUGATES AND THEIR METHODS OF USE” (Novartis AG, priority 2021, published 2024).

Legend:
[1] = BTK FAC plasma stability assay, PBS buffer arm; assay type: physicochemical; conditions: for Plasma stability (h) PBS: incubation to 24 h
Experimental: (§1) Plasma stability was conducted in Dulbecco's PBS buffer, mouse plasma, rat plasma or human plasma frozen with K3-EDTA from BiolVT). Thawed plasma was centrifuged prior to warming for 5 minutes at 37° C. Working solutions were prepared from 10 mM DMSO solution to 500 µM in acetonitrile:water (1:1); 2 µL of working solution was added to 198 µL blank plasma or PBS and mixed manually. 4×45 µL of spiked matrix was aliquoted into glass incubation plates (96-well DW glass microplate) and sealed with blue silicon/PTFE seal; then incubated on a Thermo shaker (38° C. 300 RPM). Samples were prepared at 0, 2, 6 and 24 h timepoints, by protein precipitation with chilled acetonitrile containing internal standard Glyburide (0.2 µM). Precipitated samples were shaken for 10 minutes and stored at 4° C. until completion of the study. Following precipitation of the terminal sample, samples were frozen at −80° C. for 1 hour. Samples were then thawed prior to centrifugation (20 minutes, 4500 RPM at 4° C.). 50 µL of supernatant of each sample was transferred to 384 well analysis plate containing 30 µL of water. Semi quantitative analysis (analyte: internal standard peak area ratio) was performed by LC-MS/MS using a Sciex QTrap 5500.

[2] = BTK FAC plasma stability assay, mouse plasma; assay type: in vitro ADME
Experimental: as §1

[3] = BTK FAC plasma stability assay, rat plasma; assay type: in vitro ADME
Experimental: as §1

[4] = BTK FAC plasma stability assay, dog plasma; assay type: in vitro ADME
[5] = BTK FAC plasma stability assay, cyno plasma; assay type: in vitro ADME, cynomolgus monkey

| SMILES | % Release of degrader after 24 h PBS [1] | Plasma stability (h) PBS [1] | % Release of degrader after 24 h mouse [2] | Plasma stability (h) mouse ([2]; incubation to 24 h) | % Release of degrader after 24 h rat [3] | Plasma stability (h) rat ([3]; incubation to 24 h) | Plasma stability (h) dog [4] | % Release of degrader after 24 h dog [4] | Plasma stability (h) cyno [5] | % Release of degrader after 24 h cyno [5] | half-life at 5 µM ([2]; incubation to 24 h) | half-life at 5 µM ([3]; incubation to 24 h) | half-life at 5 µM ([4]; read-out: Plasma stability (h) dog (converted)) |
| --- | --- | --- | --- | --- | --- | --- | --- | --- | --- | --- | --- | --- | --- |
| CCCCCCCCCCCN(C(=O)CCCCCCCCCC(=O)O)C(CCC(=O)NCCOCCOCCOCCOCCOCCOCCOCCOCCOCCOCCOCCOCCOCCOCCOCCOCCC(=O)NCC(=O)OC(C)(C)c1ccc(C(=O)Nc2cc(F)cc(-c3ncnc4[nH]c(-c5ccc(CCN6CCC7(CC6)CCN(C(=O)c6ccc(OC)c(N8CCC(=O)NC8=O)c6)CC7)cc5)cc34)c2C)c(F)c1)C(=O)O (centres unmarked) [Example A9, 62-Carboxy-2-(4-((3-(6-(4-(2-(9-(3-(2,4-dioxotetrahydropyrimidin-(2H)-yl)-4-methoxybenzoyl)-3,9-diazaspiro[5.5]undecan-3-yl)ethyl)phenyl)-7H-pyrrolo[2,3-d]pyrimidin-4-yl)-5-fluoro-2-methylphenyl)carbamoyl)-3-fluorophenyl)-2-methyl-4,7,59,64-tetraoxo-63-undecyl-3,10,13,16,19,22,25,28,31,34,37,40,43,46,49,52,55-heptadecaoxa-6,58,63-triazatetraheptacontan-74-oic acid] | 1.2% | >48 h | 15.6% | 4.6 h | 22.4% | 6.8 h | >48 h | 5.7% | 30.8 h | 3.7% |  |  |  |
| CCCCCCCCCCCN(C(=O)CCCCCCCCCC(=O)O)C(CCC(=O)NCCOCCOCCOCCOCCOCCOCCOCCOCCOCCOCCOCCOCCC(=O)N1CCN(CC(=O)OC(C)(C)c2ccc(C(=O)Nc3cc(F)cc(-c4ncnc5[nH]c(-c6ccc(CCN7CCC8(CC7)CCN(C(=O)c7ccc(OC)c(N9CCC(=O)NC9=O)c7)CC8)cc6)cc45)c3C)c(F)c2)CC1)C(=O)O (centres unmarked) [Example A22, 44-Carboxy-1-(4-(2-((2-(4-((3-(6-(4-(2-(9-(3-(2,4-dioxotetrahydropyrimidin-1(2H)-yl)-4-methoxybenzoyl)-3,9-diazaspiro[5.5]undecan-3-yl)ethyl)phenyl)-7H-pyrrolo[2,3-d]pyrimidin-4-yl)-5-fluoro-2-methylphenyl)carbamoyl)-3-fluorophenyl)propan-2-yl)oxy)-2-oxoethyl)piperazin-1-yl)-1,41,46-trioxo-45-undecyl-4,7,10,13,16,19,22,25,28,31,34,37-dodecaoxa-40,45-diazahexapentacontan-56-oic acid] | 1.3% | >48 h | 2.3% | >48 h | 1.4% | >48 h | >48 h | 1.6% | >48 h | 1.2% |  |  |  |
| COCCOCCOCCOCCOCCOCCOCCOCCOCCOCCOCCOCCC(=O)NCC(=O)OC(C)(C)c1ccc(C(=O)Nc2cc(F)cc(-c3ncnc4[nH]c(-c5ccc(CCN6CCC7(CC6)CCN(C(=O)c6ccc(OC)c(N8CCC(=O)NC8=O)c6)CC7)cc5)cc34)c2C)c(F)c1 [Example A34, 2-(4-((3-(6-(4-(2-(9-(3-(2,4-Dioxotetrahydropyrimidin-1(2H)-yl)-4-methoxybenzoyl)-3,9-diazaspiro[5.5]undecan-3-yl)ethyl)phenyl)-7H-pyrrolo[2,3-d]pyrimidin-4-yl)-5-fluoro-2-methylphenyl)carbamoyl)-3-fluorophenyl)propan-2-yl (2,5,8,11,14,17,20,23,26,29,32,35-dodecaoxaoctatriacontan-38-oyl)glycinate] | 5.2% | >48 h | 26.2% | 6.8 h | 42.2% | 5.3 h | >48 h | 5.3% | 30.6 h | 13.9% |  |  |  |
| CCCCCCCCCCCN(C(=O)CCCCCCCCCC(=O)O)[C@@H](CCC(=O)NCC(=O)O[C@H]1CN(C(=O)Nc2cc(F)cc(-c3ncnc4[nH]c(-c5ccc(CCN6CCC7(CC6)CCN(C(=O)c6ccc(OC)c(N8CCC(=O)NC8=O)c6)CC7)cc5)cc34)c2C)C[C@@H]1CC(C)C)C(=O)O [Example A31, 11-(((S)-1-Carboxy-4-((2-(((3R,4S)-1-((3-(6-(4-(2-(9-(3-(2,4-dioxotetrahydropyrimidin-1(2H)-yl)-4-methoxybenzoyl)-3,9-diazaspiro[5.5]undecan-3-yl)ethyl)phenyl)-7H-pyrrolo[2,3-d]pyrimidin-4-yl)-5-fluoro-2-methylphenyl)carbamoyl)-4-isobutylpyrrolidin-3-yl)oxy)-2-oxoethyl)amino)-4-oxobutyl)(undecyl)amino)-11-oxoundecanoic acid] |  | >72 h |  |  |  |  |  |  |  |  | < 1 h | 1.2 h | 33.6 h |
| CCCCCCCCCCCN(C(=O)CCCCCCCCCC(=O)O)C(CCC(=O)NCCOCCOCCOCCOCCOCCOCCOCCOCCOCCOCCOCCOCCC(=O)NCCOP(=O)(O)OC(C)(C)c1ccc(C(=O)Nc2cc(F)cc(-c3ncnc4[nH]c(-c5ccc(CCN6CCC7(CC6)CCN(C(=O)c6ccc(OC)c(N8CCC(=O)NC8=O)c6)CC7)cc5)cc34)c2C)c(F)c1)C(=O)O (centres unmarked) [Example A39, 47-Carboxy-1-((((2-(4-((3-(6-(4-(2-(9-(3-(2,4-dioxotetrahydropyrimidin-1(2H)-yl)-4-methoxybenzoyl)-3,9-diazaspiro[5.5]undecan-3-yl)ethyl)phenyl)-7H-pyrrolo[2,3-d]pyrimidin-4-yl)-5-fluoro-2-methylphenyl)carbamoyl)-3-fluorophenyl)propan-2-yl)oxy)(hydroxy)phosphoryl)oxy)-4,44,49-trioxo-48-undecyl-7,10,13,16,19,22,25,28,31,34,37,40-dodecaoxa-3,43,48-triazanonapentacontan-59-oic acid] | 0% | >48 h | 0% | >48 h | 0% | >48 h | 39.0 h | 0% |  |  |  |  |  |
| CCCCCCCCCCCN(C(=O)CCCCCCCCCC(=O)O)C(CCC(=O)NCCOCCOCCOCCOCCOCCOCCOCCOCCC(=O)NCC(=O)OC(C)(C)c1ccc(C(=O)Nc2cc(F)cc(-c3ncnc4[nH]c(-c5ccc(CCN6CCC7(CC6)CCN(C(=O)c6ccc(OC)c(N8CCC(=O)NC8=O)c6)CC7)cc5)cc34)c2C)c(F)c1)C(=O)O (centres unmarked) [Example A8, 38-Carboxy-2-(4-((3-(6-(4-(2-(9-(3-(2,4-dioxotetrahydropyrimidin-(2H)-yl)-4-methoxybenzoyl)-3,9-diazaspiro[5.5]undecan-3-yl)ethyl)phenyl)-7H-pyrrolo[2,3-d]pyrimidin-4-yl)-5-fluoro-2-methylphenyl)carbamoyl)-3-fluorophenyl)-2-methyl-4,7,35,40-tetraoxo-39-undecyl-3,10,13,16,19,22,25,28,31-nonaoxa-6,34,39-triazapentacontan-50-oic acid] | 2.8% | >48 h | 20.1% | >48 h | 18.1% | >48 h | >48 h | 13.1% |  |  |  |  |  |
